Assay [1] concerns the target T1, mouse serum albumin (MSA), full length (mouse, UniProt P07724 25-608).
T1 construct: mature; Immobilized on CM5 chip (SPR) or coated on plates (ELISA); also called mouse albumin; murine serum albumin
Nature of the assay: direct binding ELISA, coated MSA, anti-His-HRP. More on the design: unit not given here. In general terms: ELISA stands for enzyme-linked immunosorbent assay.
Target sequence in this assay (P07724 25-608): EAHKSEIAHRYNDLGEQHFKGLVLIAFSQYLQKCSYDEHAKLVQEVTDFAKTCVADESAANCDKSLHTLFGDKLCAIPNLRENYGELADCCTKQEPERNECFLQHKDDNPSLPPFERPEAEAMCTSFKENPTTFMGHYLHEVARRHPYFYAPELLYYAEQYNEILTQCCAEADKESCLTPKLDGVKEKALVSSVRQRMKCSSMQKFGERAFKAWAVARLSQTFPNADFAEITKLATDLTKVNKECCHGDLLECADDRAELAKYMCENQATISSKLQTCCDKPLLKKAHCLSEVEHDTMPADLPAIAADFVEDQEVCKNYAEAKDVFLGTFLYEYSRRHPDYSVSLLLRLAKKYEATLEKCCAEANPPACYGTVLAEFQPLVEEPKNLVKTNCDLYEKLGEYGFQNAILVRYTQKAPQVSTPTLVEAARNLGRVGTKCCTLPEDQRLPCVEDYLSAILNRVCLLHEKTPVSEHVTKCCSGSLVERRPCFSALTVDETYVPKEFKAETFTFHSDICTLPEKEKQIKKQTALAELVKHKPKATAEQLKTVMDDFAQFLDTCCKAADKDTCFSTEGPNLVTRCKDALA

In assay [2] the target is T1, mouse serum albumin (MSA), full length. Nature of the assay: SPR off-rate ratio to parent ADX_7016_A01, MSA, 25 C. On the procedure:
(§1) Measurements were conducted by SPR and ELISA. SPR was conducted as follows. Full length HSA or mouse albumin was immobilized on a Biacore T series CM5 chip at 15 ug/mL in 10 mM acetate buffer (pH 5.0) buffer using standard NHS/EDC coupling, to a surface density of approximately 1000-1100 RU. For off-rate measurements at 25° C., PKE Adnectins were applied as analytes at 500 nM in HBS-P+(0.01 M HEPES pH 7.4, 0.15 M NaCl, 0.005% v/v Surfactant P20) running buffer at a flow rate of 20ul/min for 120 s over the immobilized albumins, followed by 800 s for dissociation. […] Regeneration of the chip surface between cycles was accomplished with two 30 second pulses of 10 mM Glycine, pH 2.0. Kinetic traces of reference-subtracted sensorgrams were fit to a 1:1 binding model for affinity using the Biaevaluation software. Only the dissociation phase was fit for determination of off-rates.

In assay [3] the target is T2, human serum albumin (HSA), full length (human, UniProt P02768 25-609).
T2 construct: mature; Immobilized on CM5 chip (SPR) or coated on plates (ELISA)
As to the kind of experiment: SPR, immobilized HSA, 500 nM Adnectin, 25 C. On the procedure:
as §1

The target in assay [4] is T2, human serum albumin (HSA), full length. Nature of the assay: SPR off-rate ratio to parent ADX_7016_A01, HSA, 25 C. Here is the method:
as §1

Assay [5] has as its target T1, mouse serum albumin (MSA), full length. As to the kind of experiment: SPR off-rate, immobilized MSA, 500 nM Adnectin, 25 C. Here is the method: as §1
Assay [6] has the same target. Nature of the assay: direct binding ELISA, coated MSA, anti-His-HRP. On the procedure:
Direct binding ELISA assays were conducted as follows. Full length human and murine serum albumin at 10ug/ml in PBS were coated on Nunc Maxisorp plates overnight at 4° C. Plates were blocked in casein/PBS buffer. PKE Adnectins were allowed to bind over a 4-point concentration range of 0.032-4 uM for HSA and 0.008-1 uM for MSA. Bound Adnectin was detected by anti-His antibody conjugated with HRP (horseradish peroxidase) diluted 1:1500 in casein/PBS. Plates were developed with TMB substrate and absorbance read at 450 nm. Adnectins were binned as high, medium and low affinity binders based on the observed Ymax of the concentration response curves.

For assay [7], the target named is T2, human serum albumin (HSA), full length. Nature of the assay: SPR off-rate, immobilized HSA, 500 nM Adnectin, 25 C. On the procedure: as §1
For assay [8], the target named is T1, mouse serum albumin (MSA), full length. Nature of the assay: SPR, immobilized MSA, 500 nM Adnectin, 25 C. Here is the method: as §1
For orientation: SPR reads the build-up and loss of mass on a sensor chip optically.

The target of assay [9] is T2, human serum albumin (HSA), full length. Nature of the assay: SPR kinetics, immobilized albumin, 1:1 fit, 37 C. On the procedure: as §1, with “The SPR” for “Measurements were conducted by SPR and ELISA. SPR”, “length human, mouse, rat and cynomolgus monkey serum” for “length HSA or mouse”, “albumin were” for “albumin was”
For assay [10], the target named is T1, mouse serum albumin (MSA), full length. Nature of the assay: SPR kinetics, immobilized albumin, 1:1 fit, 37 C. Here is the method: as §1, with “The SPR” for “Measurements were conducted by SPR and ELISA. SPR”, “length human, mouse, rat and cynomolgus monkey serum” for “length HSA or mouse”, “albumin were” for “albumin was”
The target in assay [11] is T3, rat serum albumin (rat SA), full length (rat, UniProt P02770 25-608).
T3 construct: mature; Immobilized on CM5 chip (SPR); also called RSA
Nature of the assay: SPR kinetics, immobilized albumin, 1:1 fit, 37 C. Here is the method: as §1, with “The SPR” for “Measurements were conducted by SPR and ELISA. SPR”, “length human, mouse, rat and cynomolgus monkey serum” for “length HSA or mouse”, “albumin were” for “albumin was”

Assay [12] addresses T4, cynomolgus monkey serum albumin (cynoSA), full length (cynomolgus monkey, UniProt A2V9Z4 25-608).
T4 construct: mature; Immobilized on CM5 chip (SPR); the cynoSA experiment used a different Biacore chip; also called CySA
As to the kind of experiment: SPR kinetics, immobilized albumin, 1:1 fit, 37 C. On the procedure: as §1, with “The SPR” for “Measurements were conducted by SPR and ELISA. SPR”, “length human, mouse, rat and cynomolgus monkey serum” for “length HSA or mouse”, “albumin were” for “albumin was”

Assay [13] has as its target T4, cynomolgus monkey serum albumin …. Nature of the assay: SPR kinetics (Biacore, CM5): ligand '15ug/ml Cyno SA in Acetate 5.0' immobilised, Adnectin concentration series as analyte, 37 C, 1:1 binding fit; curve Fc=2-1 [panel Cyno SA]. On the procedure:
as §1, with “The SPR” for “Measurements were conducted by SPR and ELISA. SPR”, “length human, mouse, rat and cynomolgus monkey serum” for “length HSA or mouse”, “albumin were” for “albumin was”

Assay [14] has the same target. Nature of the assay: SPR kinetics (Biacore, CM5): ligand '15ug/ml CynoSA in Acetate 5.0' immobilised, Adnectin concentration series as analyte, 37 C, 1:1 binding model; curve Fc=2-1 [panel Cyno SA]. Here is the method:
as §1, with “The SPR” for “Measurements were conducted by SPR and ELISA. SPR”, “length human, mouse, rat and cynomolgus monkey serum” for “length HSA or mouse”, “albumin were” for “albumin was”

The target is the same in assay [15]. Nature of the assay: SPR kinetics (Biacore, CM5): ligand '15ug/ml CynoSA in Acetate5.0' immobilised, Adnectin concentration series as analyte, 37 C, 1:1 binding model; curve Fc=2-1 [panel Cyno SA]. Here is the method:
as §1, with “The SPR” for “Measurements were conducted by SPR and ELISA. SPR”, “length human, mouse, rat and cynomolgus monkey serum” for “length HSA or mouse”, “albumin were” for “albumin was”

This is an account of results in patent US20180258158A1 (Bristol-Myers Squibb, published 2018).

Broadly, the koff is a measure of how fast the partners let go of each other. What is called Kd is the constant that tells how readily two partners part at equilibrium. The term kon denotes a measure of how fast the partners come together.

T2 sequence (P02768 25-609): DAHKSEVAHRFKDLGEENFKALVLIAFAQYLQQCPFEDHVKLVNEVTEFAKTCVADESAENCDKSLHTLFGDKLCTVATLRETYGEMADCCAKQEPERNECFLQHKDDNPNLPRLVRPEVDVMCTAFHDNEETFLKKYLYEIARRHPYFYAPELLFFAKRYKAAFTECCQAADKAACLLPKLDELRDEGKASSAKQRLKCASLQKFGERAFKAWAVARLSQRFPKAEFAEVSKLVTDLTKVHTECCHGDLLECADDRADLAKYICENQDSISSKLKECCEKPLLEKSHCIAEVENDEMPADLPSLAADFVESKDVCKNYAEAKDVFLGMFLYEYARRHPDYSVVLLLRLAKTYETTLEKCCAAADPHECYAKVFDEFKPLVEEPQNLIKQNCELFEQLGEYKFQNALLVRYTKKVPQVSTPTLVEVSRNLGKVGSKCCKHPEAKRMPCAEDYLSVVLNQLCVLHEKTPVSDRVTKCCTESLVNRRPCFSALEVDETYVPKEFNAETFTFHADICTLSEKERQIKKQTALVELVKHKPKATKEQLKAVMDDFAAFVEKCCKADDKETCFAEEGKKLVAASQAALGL
T3 sequence (P02770 25-608): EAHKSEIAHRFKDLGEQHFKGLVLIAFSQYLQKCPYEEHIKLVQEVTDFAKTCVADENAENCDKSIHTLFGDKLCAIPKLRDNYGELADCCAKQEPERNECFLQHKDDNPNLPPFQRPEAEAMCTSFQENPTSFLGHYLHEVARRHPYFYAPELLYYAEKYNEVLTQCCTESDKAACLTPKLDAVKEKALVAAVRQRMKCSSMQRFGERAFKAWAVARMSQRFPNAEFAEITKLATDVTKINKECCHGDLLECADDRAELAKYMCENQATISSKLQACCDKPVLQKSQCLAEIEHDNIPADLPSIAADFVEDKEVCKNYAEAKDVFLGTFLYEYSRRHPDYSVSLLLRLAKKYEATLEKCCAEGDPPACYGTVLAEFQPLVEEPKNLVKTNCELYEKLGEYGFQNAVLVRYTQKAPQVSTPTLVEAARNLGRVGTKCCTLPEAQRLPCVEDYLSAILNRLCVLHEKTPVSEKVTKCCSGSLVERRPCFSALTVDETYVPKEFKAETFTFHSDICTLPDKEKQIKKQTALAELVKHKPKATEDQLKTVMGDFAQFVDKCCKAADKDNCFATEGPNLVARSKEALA
T4 sequence (A2V9Z4 25-608): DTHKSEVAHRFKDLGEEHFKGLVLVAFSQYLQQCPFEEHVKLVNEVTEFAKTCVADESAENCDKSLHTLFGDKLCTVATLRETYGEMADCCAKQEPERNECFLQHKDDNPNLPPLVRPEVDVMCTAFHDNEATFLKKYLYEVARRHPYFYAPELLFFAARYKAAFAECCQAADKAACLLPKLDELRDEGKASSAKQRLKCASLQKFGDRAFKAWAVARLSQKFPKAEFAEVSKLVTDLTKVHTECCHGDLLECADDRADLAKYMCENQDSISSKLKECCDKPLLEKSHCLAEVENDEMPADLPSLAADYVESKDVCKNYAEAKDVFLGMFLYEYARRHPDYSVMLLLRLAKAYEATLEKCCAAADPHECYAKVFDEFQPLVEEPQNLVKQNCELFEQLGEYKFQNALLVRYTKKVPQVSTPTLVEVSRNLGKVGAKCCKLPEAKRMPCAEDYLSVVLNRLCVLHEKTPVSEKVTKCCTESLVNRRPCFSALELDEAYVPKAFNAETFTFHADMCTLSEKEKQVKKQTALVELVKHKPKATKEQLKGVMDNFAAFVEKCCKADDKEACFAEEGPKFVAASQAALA

B1: ADX_6734_A02 (I43A/Y44E) (designed binder)
chain: MGVSDVPRDLEVVAATPTSLLISWDAPAVTVRYYRITYGREVQKYSDLGPLYAEQEFTVPGSKSTATISGLKPGVDYTITVYAVTGSGESPASSKPISINYRTEIDKPSQHHHHHH
Take B1: in assay [1], the MSA DB ELISA (OD450) Ymax obs worked out at 100 and the MSA DB ELISA (OD450) Ymin obs turned out to be 3.

B2: ADX_6727_H10 (L41S/K85S) (designed binder)
chain: MGVSDVPRDLEVVAATPTSLLISWDAPAVTVRYYRITYGREVQKYSDLGPSYIYQEFTVPGSKSTATISGLKPGVDYTITVYAVTGSGESPASSSPISINYRTEIDKPSQHHHHHH
notes: Full His6-tagged entry
With B2, the “MSA kd/Parent kd” value in assay [2] turned out to be 34. Further, the “HSA Binding (RU)” value in assay [3] is 19 RU. In assay [4], the “HSA kd/Parent kd” value came to 32. In addition, the koff in assay [5] is 0.0146 s⁻¹; in [7] it was 0.0086 s⁻¹. Moreover, the “MSA DB ELISA YMIN OBS (OD450)” value in [6] came out at 1 OD450. Also, the “MSA Binding (RU)” value in assay [8] worked out at 35 RU.

B3: ADX_7016_C03 (Y44Q) (designed binder)
chain: MGVSDVPRDLEVVAATPTSLLISWDAPAVTVRYYRITYGREVQKYSDLGPLYIQQEFTVPGSKSTATISGLKPGVDYTITVYAVTGSGESPASSKPISINYRTEIDKPSQHHHHHH
notes: Full His6-tagged entry; also called 6727_B03
For the molecule B3, the “MSA kd/Parent kd” value in assay [2] came out at 41.9. Further, in assay [3], the “HSA Binding (RU)” value worked out at 14 RU. The “HSA kd/Parent kd” value in [4] came out at 79.4. Besides, the koff in [5] turned out to be 0.0179 s⁻¹; in assay [7] it was 0.0214 s⁻¹; in assay [9], 0.0285 s⁻¹; in assay [10], 0.0305 s⁻¹; in [11] it was 0.119 s⁻¹; in assay [12], 0.0444 s⁻¹. For the same molecule, the off-rate (koff) in assay [13] was 0.0444 s⁻¹. In addition, the “MSA DB ELISA YMIN OBS (OD450)” value in [6] amounted to 1 OD450. Further, the Kd in assay [9] came to 889 nM; in [10] it was 265 nM; in assay [11], 1340 nM; in assay [12], 1080 nM; in assay [13], 1080 nM. Also, the kon stood at 32100 M⁻¹ s⁻¹ in assay [9]; 115000 M⁻¹ s⁻¹ in [10]; 89100 M⁻¹ s⁻¹ in assay [11]; 41200 M⁻¹ s⁻¹ in assay [12]; 41200 M⁻¹ s⁻¹ in [13]. In addition, the “MSA Binding (RU)” value in assay [8] is 33 RU.

B4: ADX_7016_E02 (L38T) (designed binder)
chain: MGVSDVPRDLEVVAATPTSLLISWDAPAVTVRYYRITYGREVQKYSDTGPLYIYQEFTVPGSKSTATISGLKPGVDYTITVYAVTGSGESPASSKPISINYRTEIDKPSQHHHHHH
notes: Full His6-tagged entry; also called 6727_E08
As for B4, in [2], the “MSA kd/Parent kd” value amounted to 57.8. Besides, the “HSA Binding (RU)” value in [3] stood at 25 RU. The “HSA kd/Parent kd” value in assay [4] is 30.3. The koff in [5] is 0.0248 s⁻¹; in assay [7], 0.00815 s⁻¹; in [9], 0.0161 s⁻¹; in [10], 0.0343 s⁻¹; in [11] it was 0.0558 s⁻¹; in assay [12], 0.171 s⁻¹. In [14], the off-rate constant (koff) was determined as 0.171 s⁻¹. Also, the “MSA DB ELISA YMIN OBS (OD450)” value in assay [6] came to 1 OD450. Moreover, the Kd was 666 nM in assay [9]; 502 nM in [10]; 1130 nM in [11]; 1430 nM in [12]; 1430 nM in assay [14]. The kon came to 24200 M⁻¹ s⁻¹ in assay [9]; 68400 M⁻¹ s⁻¹ in assay [10]; 49400 M⁻¹ s⁻¹ in assay [11]; 119000 M⁻¹ s⁻¹ in assay [12]; 119000 M⁻¹ s⁻¹ in assay [14]. The “MSA Binding (RU)” value in assay [8] came to 30 RU.

B5: ADX_7016_G01 (Y44S) (designed binder)
chain: MGVSDVPRDLEVVAATPTSLLISWDAPAVTVRYYRITYGREVQKYSDLGPLYISQEFTVPGSKSTATISGLKPGVDYTITVYAVTGSGESPASSKPISINYRTEIDKPSQHHHHHH
notes: Full His6-tagged entry; also called 6727_G02
For B5, in [2], the “MSA kd/Parent kd” value was 5. Also, the “HSA Binding (RU)” value in assay [3] is 33 RU. Also, in assay [4], the “HSA kd/Parent kd” value is 5.6. Besides, the dissociation rate constant (koff) in assay [5] turned out to be 0.00213 s⁻¹; in assay [7], 0.0015 s⁻¹; in assay [9] it was 0.0032 s⁻¹; in assay [10], 0.00629 s⁻¹; in assay [11] it was 0.0346 s⁻¹; in [12], 0.00426 s⁻¹. For the same molecule, in [15], the koff is 0.00426 s⁻¹. Besides, the Kd amounted to 83.7 nM in assay [9]; 26.8 nM in assay [10]; 104 nM in assay [11]; 68.1 nM in assay [12]; 68.1 nM in [15]. Moreover, the association rate constant (kon) in [9] was 38200 M⁻¹ s⁻¹; in [10], 235000 M⁻¹ s⁻¹; in assay [11] it was 331000 M⁻¹ s⁻¹; in assay [12] it was 62500 M⁻¹ s⁻¹; in [15] it was 62500 M⁻¹ s⁻¹. The “MSA Binding (RU)” value in assay [8] is 64 RU.
